In patent US20180265572A1 (Bristol-Myers Squibb, published 2018):
Each block holds one binder with its values, some of them ahead of it.

Assays:
human IGF-IR-Fc fusion [1] = molecular target: T1, human IGF-IR-Fc fusion (human, UniProt P08069 31-932); test: SPR (Biacore T100), IGF-IR-Fc captured on Protein A; average over constructs; average over midscale and large scale material, with and without his tag; IGF1R-Fc
T1 construct: range 1-932; If it counts on the precursor, it includes the signal peptide; also called IGF1R-Fc; not shown: hinge and constant regions of human IgG
Method: (§1) Affinity data was also measured from midscale and large scale material, for the pegylated version of the tandem construct 385A08-Fn-V2B-cys (SEQ ID NO: 9, with and without his tag). The specific materials and methods for these calculations are described below.
(§2) An alternative method is to capture the IGF—IR-Fc on Protein A. This method was used for calculating the affinity and kinetics of certain versions of the construct 385A08-Fn-V2B-cys (both pegylated and non-pegylated and with or without his tag) from midscale and large scale materials. Specifically, IGF—IR-Fc was captured on Protein A immobilized on a Biacore CM5 sensor chip by amine coupling. VEGFR2-Fc was immobilized directly on a CM5 chip by amine coupling. The affinity and kinetic analysis involved the capture of IGF—IR-Fc on Protein A followed by injection of the tandem adnectin in solution over IGF—IR-Fc and VEGFR2-Fc. The analytical surface was regenerated between samples with glycine pH 1.5. Sensorgrams were obtained at each concentration and were evaluated using Biacore T100 evaluation software to determine the rate constants kₐ (kₒₙ) and kd (koff).

VEGFR2-Fc (R&D Systems) [2] = molecular target: T2, VEGFR2-Fc (R&D Systems) (UniProt P35968 20-764); test: SPR (Biacore T100), VEGFR2-Fc immobilised directly on a CM5 chip; average over constructs; average over midscale and large scale material, with and without his tag; VEGFR2
T2 construct: Bought reagent; not shown: Fc part of the bought fusion; not described
Method: as §1
as §2, with “The affinity and kinetic analysis involved the capture of IGF—IR-Fc on Protein A followed by injection of the tandem adnectin in solution over IGF—IR-Fc and VEGFR2-Fc. The analytical surface was regenerated between samples with glycine pH 1.5.” left out
(§3) The functionality of the V2B domain was assessed by evaluating a concentration series of the midscale and large scale purification of the tandem construct 385A08-Fn-V2B (pegylated, and non-pegylated versions, his-tag and non-his-tag versions) vs. VEGFR2-Fc that was directly immobilized on a CM5 chip surface (GE, Piscataway, N.J.). […] Varying concentrations of 385A08-Fn-V2B in the solution phase were monitored for association (2 minutes) and dissociation (10 minutes) kinetics at a flow rate of 50 uL/min. […]

human IGF-IR-Fc fusion [3] = molecular target: T1, human IGF-IR-Fc fusion; test: SPR (Biacore T100), IGF-IR-Fc captured on Protein A; average over constructs; average over midscale and large scale material, with and without his tag; IGF1R
Method: as §1, §2

VEGFR2-Fc (R&D Systems) [4] = molecular target: T2, VEGFR2-Fc (R&D Systems); test: SPR (Biacore T100), VEGFR2-Fc immobilised directly on a CM5 chip; average over constructs; average over midscale and large scale material, with and without his tag; VEGFR2-Fc
Method: as §1
as §2, with “The affinity and kinetic analysis involved the capture of IGF—IR-Fc on Protein A followed by injection of the tandem adnectin in solution over IGF—IR-Fc and VEGFR2-Fc. The analytical surface was regenerated between samples with glycine pH 1.5.” left out
as §3

VEGFR2-Fc (R&D Systems) [5] = molecular target: T2, VEGFR2-Fc (R&D Systems); test: SPR (Biacore), VEGFR2-Fc immobilised directly on a CM5 chip, binder in solution; V2B domain; VEGFR2-Fc
Method: (§4) The functionality of the V2B domain was assessed by evaluating a concentration series of the midscale and large scale purification of the tandem construct 385A08-Fn-V2B (pegylated, and non-pegylated versions, his-tag and non-his-tag versions) vs. VEGFR2-Fc that was directly immobilized on a CM5 chip surface (GE, Piscataway, N.J.). VEGFR2-Fc (R&D Systems, MN) was diluted to 12 ug/mL in 50 mM Acetate pH 5.0 for an immobilization level of ˜1300 RU. Varying concentrations of 385A08-Fn-V2B in the solution phase were monitored for association (2 minutes) and dissociation (10 minutes) kinetics at a flow rate of 50 uL/min. Two 30 second injections of 50 mM glycine pH 1.7 were used to regenerate the surface.

VEGFR2-Fc (R&D Systems) [6] = molecular target: T2, VEGFR2-Fc (R&D Systems); test: SPR (Biacore), VEGFR2-Fc immobilised directly on a CM5 chip, binder in solution; V2B domain; VEGFR2-Fc; average
Method: (§5) A concentration series of the midscale purification of the tandem construct 385A08-Fn-V2B (non pegylated, his-tagged version, SEQ ID NO: 8) was also evaluated. The functionality of each of the domains of this construct, specifically, the V2B domain, and the IGF-IR domain, was evaluated as described in the materials and methods section below.
as §4

human IGF-IR on cells [7] = molecular target: T3, human IGF-IR on cells (human, UniProt P08069 31-1367); test: cell-based or functional assay
[8] = molecular target: VEGFR2 fusion protein on Ba/F3 cells (extracellular domain of hVEGFR2 and intracellular domain of hEpoR) (human, UniProt P35968 20-764; P19235 274-508, limits assumed); test: cell-based or functional assay
human IGF-IR-Fc fusion [9] = molecular target: T1, human IGF-IR-Fc fusion; test: SPR (Biacore), IGF-IR-Fc captured on anti-human IgG, binder in solution (n of 1); IGF-IR domain; IGF-IR-Fc; n of 1
Method: as §5
Another method to assess the functionality of the IGF-IR domain is to capture the IGF—IR-Fc on anti-human IgG (GE, Piscataway, N.J.). This was done for the midscale purified construct 385A08-Fn-V2B (non-pegylated, his-tag) as described in Example 5 above. The anti-human IgG was immobilized on flow cells 1 and 2 of a CM5 chip surface according the manufacturer's instructions. 100 nM human IGF—IR-Fc was injected for 2 minutes at 10 ul/min on flow cell 2. Subsequently a concentration series of the midscale prep was injected across both flow cell surfaces at 50 uL/min. Two injections of 50 mM Glycine pH 1.7 were used to regenerate the surface.

human IGF-IR-Fc fusion [10] = molecular target: T1, human IGF-IR-Fc fusion; test: SPR (Biacore), IGF-IR-Fc captured on Protein A/G, HTPP purified binder in solution, n=1, KD approximate
human IGF-IR on cells [11] = molecular target: T3, human IGF-IR on cells; test: cell-based or functional assay; remark: listed apart in the source
human IGF-IR on cells [12] = molecular target: T3, human IGF-IR on cells; test: competitive blocking assay on R+ cells overexpressing human IGF-IR; competitor 200 nM IRDye 800CW-labelled AT580-PEG20-AT580
Method: Certain tandem constructs were evaluated for their ability to compete with mono-specific IGF-IR and VEGFR-2 binders in vitro.
R⁺, a gift from Renato Baserga (Thomas Jefferson University, Philadelphia, Pa.), is a mouse embryo fibroblast overexpressing human IGF-IR in the context of a deletion in the mouse IGF-IR gene. Cells were plated in 96 well plates at a concentration of 20,000 cells per well in DMEM (Invitrogen, Carlsbad, Calif.) containing 5% calf serum (Hyclone, Logan, Utah). The following day, cells were washed twice in serum free DMEM containing 0.1% BSA (Invitrogen, Carlsbad, Calif.). After the washes, the cells were incubated at 4° C. for 10 minutes in binding buffer (serum free DMEM+0.1% BSA) containing increasing concentrations of IGF-IR antagonists or controls. Typical controls included the mono-specific ¹⁰Fn3-based IGF-IR binder (AT580-PEG40, SEQ ID NO: 27) (positive control) or the mono-specific ¹⁰Fn3-based VEGFR2 binder (Peg-V2Bshort, SEQ ID NO: 28) (negative control). Following this brief exposure to antagonists, R⁺ cells were additionally exposed to 200 nM of a bi-valent ¹⁰Fn3-based IGF-IR binder (AT580-PEG20-AT580, SEQ ID NO: 27) labeled with IRDye 800CW according to the manufacturer instructions (Li-Cor Biosciences, Lincoln, Nebr.). […] The resulting data was analyzed using GraphPad Prism (GraphPad Software, La Jolla, Calif.).

human IGF-IR-Fc fusion [13] = molecular target: T1, human IGF-IR-Fc fusion; test: SPR (Biacore), binding to IGF-IR-Fc, n=1

koff (human IGF-IR-Fc fusion [1]): 0.000247 s⁻¹
kon (human IGF-IR-Fc fusion [1]): 315000 M⁻¹ s⁻¹
Kd (VEGFR2-Fc (R&D Systems) [2]): 10.5 nM
Kd (human IGF-IR-Fc fusion [3]): 0.84 nM
koff (VEGFR2-Fc (R&D Systems) [4]): 0.000102 s⁻¹
kon (VEGFR2-Fc (R&D Systems) [4]): 11500 M⁻¹ s⁻¹
B1: pegylated version of the tandem construct 385A08-Fn-V2B-cys (with and without his tag) (designed binder)
chain: MGVSDVPRDLEVVAATPTSLLISWSARLKVARYYRITYGETGGNSPVQEFTVPKNVYTATISGLKPGVDYTITVYAVTRFRDYQPISINYRTEIDKPSTSTSTVSDVPRDLEVVAATPTSLLISWRHPHFPTRYYRITYGETGGNSPVQEFTVPLQPPTATISGLKPGVDYTITVYAVTDGRNGRLLSIPISINYRTEIDKPCQ
modifications: PEG on the single cysteine at position 203
notes: also called the various constructs tested

Kd (VEGFR2-Fc (R&D Systems) [5]): ~0.3 nM
koff (VEGFR2-Fc (R&D Systems) [6]): 0.00045 s⁻¹
kon (VEGFR2-Fc (R&D Systems) [6]): 1.4e+06 M⁻¹ s⁻¹
IC50, inhibition of proliferation of Rh41 cells (n=1) (human IGF-IR on cells [7]): 26 nM
IC50, inhibition of VEGF-A dependent proliferation of Ba/F3 cells [8]: 1 nM
Kd (human IGF-IR-Fc fusion [9]): ~0.02 nM
koff (human IGF-IR-Fc fusion [9]): 0.00017 s⁻¹
kon (human IGF-IR-Fc fusion [9]): 1.1e+07 M⁻¹ s⁻¹
Kd (human IGF-IR-Fc fusion [10]): ~0.3 nM
B2: 385A08-Fn-V2B (non pegylated, his-tagged version) (designed binder)
chain: GVSDVPRDLEVVAATPTSLLISWSARLKVARYYRITYGETGGNSPVQEFTVPKNVYTATISGLKPGVDYTITVYAVTRFRDYQPISINYRTEIDKPSTSTSTVSDVPRDLEVVAATPTSLLISWRHPHFPTRYYRITYGETGGNSPVQEFTVPLQPPTATISGLKPGVDYTITVYAVTDGRNGRLLSIPISINYRTEIDKPSQHHHHHH
notes: also called 385A08-Fn-V2B (Ser tail); 385A08-Fn-V2B (with his tag)

IC50 for inhibition of pIGF-1R activity, Western blot, HMVEC-L cells stimulated with VEGF and IGF-1 (human IGF-IR on cells [11]): 100 nM
IC50 (human IGF-IR on cells [12]): 600 nM
B3: AT580-PEG40 (designed binder)
chain: MGVSDVPRDLEVVAATPTSLLISWSARLKVARYYRITYGETGGNSPVQEFTVPKNVYTATISGLKPGVDYTITVYAVTRFRDYQPISINYRTEIDKPCQ
modifications: 40 kDa PEG at position 98 (cysteine)

Kd (human IGF-IR-Fc fusion [13]): 0.076 nM
B4: AT577 (designed binder)
chain: MGVSDVPRDLEVVAATPTSLLISWSARLKVARYYRITYGETGGNSPVQEFTVPKNVYTATISGLKPGVDYTITVYAVTRFRDYQPISINYRTEIDKPSQ
